Our source for the mitogenic activity (NIH 3T3 fibroblast proliferation, EC50) (fold reduction) values is patent US7696171.

For assay [1], the target named is FGF receptor (FGFR). Put plainly: cell-based or functional assay.
Assay [2] addresses FGF receptor (FGFR). Put plainly: cell-based or functional assay. This is another data set of the same source.

Like-named read-outs stand apart in the source and are kept apart here.

With “FGF-1 Glu87→Val/Pro134→Val mutant (in the WT* Cys117→Val background) (from UniProt P05230 16-155) (ligand)”, the mitogenic activity (NIH 3T3 fibroblast proliferation, EC50) (fold reduction) is 2 with FGF receptor (FGFR) [1] and 3 in the assay with FGF receptor (FGFR) [2].

Regarding “FGF-1 Lys12→Val/Asn95→Val mutant (in the WT* Cys117→Val background) (from UniProt P05230 16-155) (ligand)”, the mitogenic activity (NIH 3T3 fibroblast proliferation, EC50) (fold reduction) in the assay with FGF receptor (FGFR) [2] came to 1000.
